In assay [1] the target is Trypanosoma cruzi Hsp70B (Trypanosoma cruzi).
Assay [2] deals with Trypanosoma brucei Hsp70.c (Trypanosoma brucei brucei TREU927).
The target in another assay is malate dehydrogenase (UniProt P00346).
Sequence of UniProt P00346 (P00346 25-338): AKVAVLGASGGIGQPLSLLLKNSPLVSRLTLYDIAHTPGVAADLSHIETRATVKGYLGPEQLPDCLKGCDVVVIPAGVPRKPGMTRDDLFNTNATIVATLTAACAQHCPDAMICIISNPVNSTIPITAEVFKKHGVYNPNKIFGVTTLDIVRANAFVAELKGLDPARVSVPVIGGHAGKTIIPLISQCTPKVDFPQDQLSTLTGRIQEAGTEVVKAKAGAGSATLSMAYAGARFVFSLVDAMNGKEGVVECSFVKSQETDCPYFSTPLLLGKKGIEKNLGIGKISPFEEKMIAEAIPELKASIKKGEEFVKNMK

On to “Trypanosoma brucei J protein 2 (natural protein)”, for which, in assay [1], the stimulation of the basal ATPase activity of TcHsp70B by Tbj2 (colorimetric phosphate release, 37°C, 600 µM ATP); equal concentrations 1.39-fold, Tbj2 at 2-fold molar excess 2.62-fold came out at 2.62 fold. Further, in assay [2], the stimulation of the basal ATPase activity of TbHsp70.c by Tbj2 (colorimetric phosphate release, 37°C, 600 µM ATP); equal concentrations 1.62-fold, Tbj2 at 2-fold molar excess 2.88-fold stood at 2.88 fold. “Trypanosoma brucei Hsp70.c (natural protein)” showed a suppression of thermal aggregation of MDH (0.72 µM, 48°C, light scatter at 360 nm, 30 min) by TbHsp70.c, dose-dependent; number printed for 0.5 µM TbHsp70.c with malate dehydrogenase of 61.8%.

(Values after article PMC3953656.)
